Among the data in PMC4358365, “Conserved mechanisms of microtubule-stimulated ADP release, ATP binding, and force generation in transport kinesins” (eLife, 2014) are K (0.5 MT) of the steady-state MT-activated ATPase (10 nM motor domain, paclitaxel-stabilised MTs, 20°C) values, retold here.

This assay addresses paclitaxel-stabilised microtubule polymerised from bovine αβ-tubulin (bovine) (UniProt Q6B856).
UniProt Q6B856, sequence (Q6B856 whole entry, looked up): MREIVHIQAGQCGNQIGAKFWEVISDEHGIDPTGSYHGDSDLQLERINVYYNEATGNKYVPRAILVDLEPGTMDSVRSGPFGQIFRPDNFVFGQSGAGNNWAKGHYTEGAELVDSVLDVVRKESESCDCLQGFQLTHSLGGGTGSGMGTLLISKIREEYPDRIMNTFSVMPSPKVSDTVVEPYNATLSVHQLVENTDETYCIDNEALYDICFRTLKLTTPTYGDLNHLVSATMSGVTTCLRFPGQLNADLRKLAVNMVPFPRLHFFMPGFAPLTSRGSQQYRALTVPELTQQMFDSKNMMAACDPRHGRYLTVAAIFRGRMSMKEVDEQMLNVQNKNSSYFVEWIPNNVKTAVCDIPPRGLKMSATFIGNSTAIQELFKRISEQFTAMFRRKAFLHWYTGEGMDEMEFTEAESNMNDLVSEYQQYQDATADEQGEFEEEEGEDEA

“human kinesin-1 (Kin1) motor domain construct (Kif5A, residues 1–340) (from UniProt Q12840 1-340) (domain or fragment)” gave a K (0.5 MT) of the steady-state MT-activated ATPase (10 nM motor domain, paclitaxel-stabilised MTs, 20°C) of 12.7 µM.

B1: human kinesin-3 (Kin3) motor domain construct (Kif1A, residues 1–361) (domain or fragment)
chain: MAGASVKVAVRVRPFNSREMSRDSKCIIQMSGSTTTIVNPKQPKETPKSFSFDYSYWSHTSPEDINYASQKQVYRDIGEEMLQHAFEGYNVCIFAYGQTGAGKSYTMMGKQEKDQQGIIPQLCEDLFSRINDTTNDNMSYSVEVSYMEIYCERVRDLLNPKNKGNLRVREHPLLGPYVEDLSKLAVTSYNDIQDLMDSGNKARTVAATNMNETSSRSHAVFNIIFTQKRHDAETNITTEKVSKISLVDLAGSERADSTGAKGTRLKEGANINKSLTTLGKVISALAEMDSGPNKNKKKKKTDFIPYRDSVLTWLLRENLGGNSRTAMVAALSPADINYDETLSTLRYADRAKQIRCNAVIN
Molecule B1 showed a K (0.5 MT) of the steady-state MT-activated ATPase (10 nM motor domain, paclitaxel-stabilised MTs, 20°C) of 0.0537 µM.
